According to the domain aggregation screens of Martell et al. (2025):

experiment: soluble fraction after stress (log2 fold change); higher = more stays soluble; pooled small domains, quantitative proteomics; details: stress: 50 degC
Procedure, shortened: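 Pooled custom libraries of small protein domains were measured in a high-throughput format, with quantitative proteomics as the read-out. Each library was stressed at 50°C. Aggregation propensity is given as the base-two logarithm of the fold change in how much of each protein stays soluble after the stress. Higher values mean a larger share of the protein remains in solution.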

Sequence	soluble fraction (log2)
HMYLYHDLSDEAKAMGDEYVSVEHLVLALIRYPNNAVKELFREFGITRERFLQVLSTIRGNQRVTSDNPEA	0.0309
HMREKMKGKILDYNFQESRGIISADDGNRYSFENSQWKGTQSPKVNQIVDFEIDGQNAKDIYLDK	0.162
HMLFQQPATMIGKIGVAMSDLRPSGKIKIDDEWYDGQSEGDYILKGQEIIVVQVMNAYLIVRL	0.126
HMRGINDLSLVDPQGRIRKDGEQYVVAFGRHKGKEISQIISQDPSYLNWLLSPKGIEDDATRELIRTQYS	-0.0415
HMLLAPLRLGAAPDIKAQAPLATILARHNGEMEAKDLWQRFGGEIDAFYLQLKTEVAHGWIVEPEPA	-0.816
HMAIADQPISAEHFDKLRQVLNSNTQETIASAKQHWASISNNAEFTNENVTRTLLEEMLAFIKSAS	0.307
HMIRALVPGQTLHGEIVGRNGGEVQVRLAEDMILNARVDQNIYLELGKDLTFEVKNNGATLTLSPL	-0.272
HMERAYGVRVSLRLDDPFRTLLGADWSRTHWFASAEERDAALLEMSRKHEFSRPGDQPALVYEKVQN	-0.728
HMTPVYLNARQKQILAFLKREEPAKVGDIAHALKTISINTLKKDLLYLRQKNLIESHGVLKGTIYTVK	-1.41
HMAAGKGVTTGSVRLRKGSNTDSAIIATLKKDTELILYGKKDGWYSVKTSDGTEGFVSSKYVKVTEAY	0.313
HMSDNYYSILGIETDATTDMIKRAYRRLSLELHPDRTKDNPILTEKYKKVNEAYGVLNDNDRKHIYDLQNI	-0.216
HMSVSVNAPMPGNILDVRAKTGESIQKGQVIVILEAMKMENEIMAPQDGKISSINTSKGSTVNSGDLLFTM	-0.155
HMNLLDYTTLYVTSDGKSVSFGIAGKEIPVSYIAQEAPGTVVIDDTIRIPRKYDMEYILKRFNES	-1.03
HMQMSDTAAIGKIVDEVFAENPAALEDYAKGKTNVVDWLTGQVMKKSRGQANPGIASELVQKRLADF	0.122
HMGYPYDTVTTAKVNLRAKRSTSSDILKKIPEGATVTVKGVTGTFASVDYNGTSGYVKVDYLV	0.069
HMRTAKEVFYKELKGYMQNGDELSVKKIYSLFPEINPKTVSWRLHELVQHGKIHRTGHGYYALTQ	-1.07
HMDKMIFFKNKENNDDNQLVKIGALLIHAAKIDEDFSQEEENIIKQTLINFGAGNKNINEIIEKAKKME	0.389
HMRSASFDIMSQKQSDATLGYERVYDTETNEVYKAYNGFTDDYDGERYKSISDNMYTKGISGYIEK	0.327
HMIQADFIPQVEQRLADRGLSMSGDVMAAFLDRAGYGLRHVSNEIEKLSLYLGDRKKVTVEDVVQMVAPVR	-0.283
HMDRERFIKLGREIARAAFENVGKKATDKVLNSAAKKLRLEDGDEVLARLGSAEIEARSVVQAVYPDLI	0.452
HMPRFDINFKVGEVVTIKGGSFDGQQGEISEIDHEHGKIKVMLEVLGRLTPVEVEHTEIEKI	0.176
HMTATWLTYYRIKAGLTQKRLAELAGLNIRQVQKIENGETLAGNTTAKNLLALADALGIDPHKL	-2.05
HMTEPLTKREKEVLLLLPRGLTAKAMASELFLTEATIKSHLAAIFRKFKVVNRTQAIAIAVESKILT	-2.33
HMNHYTEEYILKRMKDFFTTHAYITRRDIESLFGFRRSYATKWLKHFRESGVLKQSGPVNSAVYLL	-2.83
HMTENLELLATGSLWTEPDGSGKIISYLIPGLRVKKLETNGIFYKIQLQNGLIGWADQSLFTIAEPK	-0.0642
HMIGMDMQELIGRYKGDPDEMGKIELAAMSMLKLSEDMSSDHVLQKSKLRQDGLWLLKYVQE	-0.551

Sequence	soluble fraction (log2)
HMEEKNNIIVSYIEDKISELEKASMYVPNENKEKLIMAFKNRNEDIDVIKTRIDTIFNNSVAAYKENME	0.21
HMQDTYQVKLLTNLNIRKSPNGTIVQKGGAKKGIIYTIVETSGTWGRLKSNAGWISVSDKYVTK	-3.43
HMEEKWKENYEKIKLFISINNRYPSVYSEDKEEGLIGSFMSNQKRRKNKLSKEKMALFEALPNWIWE	-1.72
HMDDTRLELTLLGKIHNDEEINKQSHINVNIKNGVILLTGESPRREITERILTLARTFEHTRQIVNQIAT	0.116
HMGELVIPPLRERTVVDAVAEAERLGFVVQVEPVASSLPEGRVLGQSPEPGTRARKSQVVVLQVSRG	-0.148
HMDTYKGFIFEVVDKYFSPTLNQKIGQAKNKQGIVLLQTKPSFTQDPKVLIEELKLIIDRDNLKA	-0.145
HMAPADLSPEERVVLDALALEPVHVDALAAKLGRRSEELLTSLTLMEMRGLAVAHAGSRYSRATMT	0.0694
HMDDATTQLADRLLDLRRKAGYSQEQLADLLGVSRQAISKWEGAQGRPEVDNVVKLAQIYRVSTDFILTGS	-0.552
HMGNRQEQVRIIRDLWRQLADAGQPVPAKHLTLDLDALDATQLTKLEDQAHGWLAKLSAQADLADAA	-0.0488
HMTATIEEVNELTQSARVNINVPYAAKDEAKAYGAKWDDVERTWYTTGENYAQNKDFFDGFNPTAS	0.156
HMVRQKYKSNFITVGDKSLTIHDWAQRLNLSQYALRNRYKEFGKEWVEKAIKTILETGDNTHIYK	-0.847
HMARGLRPVPSVFGLDVRQATRTLYAAGFQVSIARGSDVRTRPAAGTLLRVGSTVQLEMPRMESA	-1.54
HMEWTDHLAEELRSLAVEGEHLEIIANKLGISPGSARAKLVNLNIYNDYQLAHIERLEADTLQAK	-0.318
HMAPREELIAIHEALDKLEREDPQVSQLVKLRYFVGMTMAEAADAMDLKKRAAEALWTYGKAWLHREIKKN	-2.85
HMKEHDTLALRLTAILRKLNDGEKLVPRELAEEFNVGIRTIQRDLTERLSFLDLEKTNGAYSLPTRNL	-0.428
HMAHILDLMELKQILRLHMDGLSNRRISDTLGIHRNTINSYVSQFKASKHGIEELLKLSDYELAQLFP	-2.26
HMASFTDAQALEVKDLYPDWSKIPEGTHLEAGQRVRYNGNLYKVRTGQAHDKQSTWTPTDAASLFEAID	0.116
HMINVGYKFKQIRENAGLTLKQVSAMSGLSVSFISQIERGVVDPSWSSLKKISAALNIKLKDLF	-1.78
HMDFGPDSAAPLADGSAPEGFDVKGNADSMLYHEPDGRWYDATVAEVWFRTAEAAQAAGFTKAGS	-0.0829
HMSKSIGEALKEERRSLGLTQEQFIKGIISESFYSKVERGKNEIVAVDLLKILAANNISEEEFLSKLN	-0.58
HMKDESQLVGAEGKAVTPLRPTGVALIGEKRLDVLTEGEFIPRNSDIIVSRVEGNKIIVKLKN	0.177
HMSILSIGLERGMKKGVAWGIAKSILDILEETGPVSEKTREMIVTETDAERLSAWVKKAARSNSEEDFLSK	-0.631
HMQPVEHLPTTDPLTTSAASEHERYEKVRWWLEEMQRTYETGDEVRAERIRLSLIEQMYKWEGE	-0.185
HMKLELSNDFYNKIRLARKENGLTQEDLAEKLNMKVGVIQKIENGVRQTDSNLMKISKFLGVEIYVE	-1.46
HMSVKIELNENEQAIFTAVQKVNEAVLPELRAQFSDMSNKAWDNSVKMLTKNNLLKVSKEGEILYIRM	-0.567
HMPSTVSVPDVAGSSLSEAKTTIKSSGLKVGTVHKVSSDTVESGYVIKTSPTAGSSKKEGSSIDIYVSKG	0.432

Sequence	soluble fraction (log2)
HMDGYLQLASKKNELITQLKTPPKPKRLFKDFEDRVYLITEYKVFVVSIFQNEFRLRPVNKDDFYRYTT	0.207
HMSDNHYLLEIFLADLKSDEKFIRELAIFQLHHHIESDKVRAELKAAAETESDPYLKGMIESLLSSTS	-0.943
HMNMPYGTVKWFNDAKGFGFIAPEDGSADVFVHFSAINSKGFRSLQEGQRVSYEVTTGPKGAQAAGVTPVT	-0.331
HMRPIDEVFGFFSRPENLTVITPSNLHFNILTPRPLEMKQGAVIDYTIKIFKVPIHWRTLITTYDPPFKFV	-0.288
HMVDIQTGQKVRIHTSQFAGKIGNITALNVKSAELPNGIRTATASILMQSNENVMLPVSNFDIIE	0.0434
HMERQAEAWTNRASALISLGRDEEALEAADRAIELDPRLSKAWIDRSTALSNLGRNDEANEAIQMAMFL	0.108
HMSEYILATNDGEFLRITSYSKEEGGMLVWEKTSSIVSAEHKVIPYSQIINIKDRNGDVVWDKD	-0.346
HMPYSAAVTFLDDAKQPMVNYNYRLIAENGIEVSGITDEFGKTQPIQTDQREKVDLYIADLPN	0.495
HMQSVEELLDAIGDERLLHILLEADRKTLQIVVLKMMGYAPKEIGSHIGMPEQTVYTKLRRLREKIKKI	-1.49
HMQKNFYQILGVDSKASPATINAAYERAKSRVIQSGLEDPDTMALLRDAWETLADPGDRAAYDESLAT	0.0751
HMEDVPYMIKLPSHHYLTKMVDGSTGWSLVQNSNTVVGSSKEELLKQYPEYEDFIVQEPLNV	0.101
HMDLTIEQTTVLGKRLFSNALNSLGKKQRNIKKDAIESLLKRMNLKDMDQLYESIGIGDKSPLLMAQILL	-0.0296
HMGPDALSIGRRVRQVRTARGMTLDELAAAVSRAPSQLSMIETGKREPKLSLLQAIARALGTTIDALLT	-0.176
HMLFSDSDLKSLLDKDISYVIEMYKAASKEQKRIISDMVAQKVMEKKYIDANILIQLGELTGINYMDL	-0.472
HMEYTVNHYPEKHRFEVVEDGLTAYVEYRLRGDALDIIHTIVPKNLEGRGIAATLVETAYKYAKEQ	-1.2
HMLLKIRPDLDGNEIMKLLNIAAGPNVGKAYEHLLELRLEHGPLGKERAEQELMNWWSARSQ	-1.09
HMNSSHRLIGLDPGLRVTGWGIVDAIGTKLVHVANGSVKSQQNAPLATRLLELENGLEEVFDNWQPDFA	0.148
HMKEPFETMPDVMDAKQIAEALQISKAGAYNLLNSPDFPTLRIGGRKLVMKNELVEWLKSHTNRK	0.274
HMVGKIVVPHLEGKPAEMARDILARDGFKSVHEEVLPSAEFGAGRVVRTEPHAGTNVAKTDPVTIFVSVGL	-0.00887
HMQNRIVNTTQGLAADKRGLLVADETGHTTRPGIFASGDVVNGARTVVEAVAHSKIVAESMHQYMQ	≥ 0.62
HMPAPMISIQLNGEPRNVQPGISIAALVREIGLEPAKVAVERNREIVPRSTLGDVLIEAGDQLEIVHFVG	0.159
HMSPTSSRAAQARIRKMIESESPLKPISDSQLAARLGEEGISIARRTVAKYREQMNILPASQRRGV	-0.146
HMLRISEEVWALVEKTLREDWSPEQVSGKLKASGISVSHERIYQHIYADKRVGGTLWTHLRR	-2.3
HMGAGLLEPEPLKIEIQETQERLQKLQKALERDTETADSKERIKRAIEAHKARISQLQGLIE	0.0635
